{
  "source": "patent US20110052597A1",
  "binders": {"B1": {"name": "murine antibody 1D9 reported in WO 03/080675 (ECACC deposit 03032101) (antibody, from another filing, V domains shown)", "VH": "EVKLVESGGGLVKPGGSLKLSCAASGFTFSGYGMSWVRQTPEKRLEWVATISGLGGYTYYPDSVKGRFTISRDNAKNTLYLQMSSLRSDDTAFYYCARRFYGDYVGAMDYWGQGTSVTVSS", "VL": "DILMTQAAFSNPVTLGTSASISCRSSKSLLHSNGITYLYWYLQKPGQSPQLLIYQMSNLASGVPDRFSCSGSGTDFTLSISRVEAEDVGFYYCAQNLELPFTFGSGTKLEIE"}},
  "key": {"[1]": {"molecular_target": "T1, cynomolgus IL-13Rα1.ECR, N-terminal FLAG-tagged fusion protein (cynomolgus macaque)", "T1 sequence": "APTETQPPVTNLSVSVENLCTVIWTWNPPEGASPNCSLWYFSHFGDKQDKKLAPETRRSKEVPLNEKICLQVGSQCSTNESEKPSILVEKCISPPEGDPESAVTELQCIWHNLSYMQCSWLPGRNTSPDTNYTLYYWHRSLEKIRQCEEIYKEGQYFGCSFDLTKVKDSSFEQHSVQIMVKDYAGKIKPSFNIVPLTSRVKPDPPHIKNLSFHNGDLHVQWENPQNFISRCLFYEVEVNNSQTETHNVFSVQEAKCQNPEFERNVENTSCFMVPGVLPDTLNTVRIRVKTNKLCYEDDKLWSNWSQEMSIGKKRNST", "assay": "BIACORE, receptor ECR immobilized on CM5 chip, mAb in solution"}, "[2]": {"molecular_target": "N-terminal FLAG-tagged fusion protein including most of the extracellular region of human IL-13Rα1 (human) (UniProt P78552)", "assay": "BIACORE, receptor ECR immobilized on CM5 chip, mAb in solution"}},
  "data": [
    {"binder": "B1", "values": [
      {"measurement": "Kd", "setting": "[1]", "result": 0.247, "unit": "nM"},
      {"measurement": "Kd", "setting": "[2]", "result": 0.207, "unit": "nM"}
    ]}
  ]
}
